The assay addresses T1, FAM-labeled Aβ42 peptide (carboxy-fluorescein conjugated to the N' terminus), prepared as ADDL oligomers (UniProt P05067 672-713, carboxy-fluorescein (FAM) on the N-terminus; the labelled peptide was mixed with wild type Aβ42 in a 1:2 molar ratio).
T1 construct: Aβ42, the 42-residue β-amyloid peptide cut from the amyloid precursor protein (APP); Mixed with unlabelled wild type Aβ42 (1:2 molar ratio), then incubated at 4 °C for 24 hrs to oligomerise (ADDLs); also called FAM-Aβ42; FAM tagged-Aβ; source: bought: Anaspec (FAM-Aβ42); Aβ peptides from BioSource
Kind of assay: fluorescence polarisation; in solution; FAM-Aβ42 probe (ADDL oligomers) fixed at 200 nM, recombinant PDK-1 or Akt-1 titrated 0-10 μM (Akt 0 to 12.5 μM) until saturation; 30 min, 25°C; 100 mM NaCl, 20 mM phosphate pH7.4, 2 mM DTT, 0.1% BSA, 2% DMSO; 2 experiments each. As to conditions: both partners purified. On the technique in general: Fluorescence polarisation rises when a labelled molecule tumbles more slowly, as on binding a larger partner.

A word on the IC50: it is the concentration at which inhibition is half-maximal.

T1 sequence (P05067 672-713): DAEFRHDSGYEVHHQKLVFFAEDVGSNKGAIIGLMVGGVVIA

B1: Recombinant human PDK-1 (active) (enzyme, UniProt O15530 1-556, looked up)
chain: MARTTSQLYDAVPIQSSVVLCSCPSPSMVRTQTESSTPPGIPGGSRQGPAMDGTAAEPRPGAGSLQHAQPPPQPRKKRPEDFKFGKILGEGSFSTVVLARELATSREYAIKILEKRHIIKENKVPYVTRERDVMSRLDHPFFVKLYFTFQDDEKLYFGLSYAKNGELLKYIRKIGSFDETCTRFYTAEIVSALEYLHGKGIIHRDLKPENILLNEDMHIQITDFGTAKVLSPESKQARANSFVGTAQYVSPELLTEKSACKSSDLWALGCIIYQLVAGLPPFRAGNEYLIFQKIIKLEYDFPEKFFPKARDLVEKLLVLDATKRLGCEEMEGYGPLKAHPFFESVTWENLHQQTPPKLTAYLPAMSEDDEDCYGNYDNLLSQFGCMQVSSSSSSHSLSASDTGLPQRSGSNIEQYIHDLDSNSFELDLQFSEDEKRLLLEKQAGGNPWHQFVENNLILKMGPVDKRKGLFARRRQLLLTEGPHLYYVDPVNKVLKGEIPWSQELRPEAKNFKTFFVHTPNRTYYLMDPSGNAHKWCRKIQEVWRQRYQSHPDAAVQ
notes: phosphoinositide-dependent protein kinase-1 (PDK-1), human, recombinant, active; printed size 59 kDa; Commercial protein; also called phosphoinositide-dependent protein kinase-1; source: bought: Amsbio
On to B1, for which the half-inhibitory concentration (IC50) was approximately 1000 nM.

Source of the values: publication PMC8782417, “A PDK-1 allosteric agonist neutralizes insulin signaling derangements and beta-amyloid toxicity in neuronal cells and in vitro” (PLoS ONE, 2022).
